“And” between values parts separate entries of the source, which are not always exact repeats. Equal entries are not always repeated.
Legend:
[1] = target: T1, mouse CD137 (recombinant protein, SPR) (mouse, UniProt P20334 24-187, limits assumed); assay: SPR
T1 construct: also called murine CD137
T1 sequence (looked up): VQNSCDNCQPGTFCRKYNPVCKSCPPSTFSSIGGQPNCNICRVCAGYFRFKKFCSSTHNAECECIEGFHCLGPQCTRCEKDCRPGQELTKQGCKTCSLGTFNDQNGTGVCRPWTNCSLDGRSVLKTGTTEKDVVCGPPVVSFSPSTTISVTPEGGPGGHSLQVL

[2] = target: T2, cynoCEA (Cat. CE5-C52H5, Acrobiosystem) (cynomolgus monkey); assay: SPR, Monkey CEA
T2 construct: Bought protein; also called Monkey CEA

cyno CD137 ECD-mIgG2a = target: T3, cyno CD137 ECD-mIgG2a (monkey (Macaca mulatta gene; called …); assay: SPR, Monkey CD137
T3 chain: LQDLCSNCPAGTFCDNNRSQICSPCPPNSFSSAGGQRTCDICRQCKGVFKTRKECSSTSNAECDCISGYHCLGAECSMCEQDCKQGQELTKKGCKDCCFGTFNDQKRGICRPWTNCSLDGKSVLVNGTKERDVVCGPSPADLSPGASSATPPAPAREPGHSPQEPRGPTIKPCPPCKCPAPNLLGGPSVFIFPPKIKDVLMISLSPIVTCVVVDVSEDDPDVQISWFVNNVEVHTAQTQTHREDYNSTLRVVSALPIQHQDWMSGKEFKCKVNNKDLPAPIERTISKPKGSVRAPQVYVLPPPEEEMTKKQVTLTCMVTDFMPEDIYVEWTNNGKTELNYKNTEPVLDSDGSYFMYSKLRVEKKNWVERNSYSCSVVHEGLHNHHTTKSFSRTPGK

[3] = target: full-length human CD137 on cells (Hut78/huCD137, HEK293 transfectants, JK-NFKB-CD137) (human, UniProt Q07011 24-255); assay: cell-based or functional assay
Sequence of full-length human CD137 on cells (Hut78/huCD137, HEK293 transfectants, JK-NFKB-CD137) (Q07011 24-255 limits assumed): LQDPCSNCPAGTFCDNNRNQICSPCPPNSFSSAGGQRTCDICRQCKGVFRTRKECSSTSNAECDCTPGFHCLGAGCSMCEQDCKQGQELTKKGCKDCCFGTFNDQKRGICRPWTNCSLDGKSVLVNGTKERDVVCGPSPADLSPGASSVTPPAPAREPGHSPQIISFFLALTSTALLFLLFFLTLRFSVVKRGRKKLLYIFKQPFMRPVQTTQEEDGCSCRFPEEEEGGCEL

[4] = target: T4, soluble human CEA, amino acids 1-687 of huCEA with C-terminal 6xHis tag (human, UniProt P06731 35-687); assay: antigen ELISA on huCEA (CEA/His), two batches of BE-146 [panel A]
T4 construct: also called sCEA; soluble huCEA
T4 sequence: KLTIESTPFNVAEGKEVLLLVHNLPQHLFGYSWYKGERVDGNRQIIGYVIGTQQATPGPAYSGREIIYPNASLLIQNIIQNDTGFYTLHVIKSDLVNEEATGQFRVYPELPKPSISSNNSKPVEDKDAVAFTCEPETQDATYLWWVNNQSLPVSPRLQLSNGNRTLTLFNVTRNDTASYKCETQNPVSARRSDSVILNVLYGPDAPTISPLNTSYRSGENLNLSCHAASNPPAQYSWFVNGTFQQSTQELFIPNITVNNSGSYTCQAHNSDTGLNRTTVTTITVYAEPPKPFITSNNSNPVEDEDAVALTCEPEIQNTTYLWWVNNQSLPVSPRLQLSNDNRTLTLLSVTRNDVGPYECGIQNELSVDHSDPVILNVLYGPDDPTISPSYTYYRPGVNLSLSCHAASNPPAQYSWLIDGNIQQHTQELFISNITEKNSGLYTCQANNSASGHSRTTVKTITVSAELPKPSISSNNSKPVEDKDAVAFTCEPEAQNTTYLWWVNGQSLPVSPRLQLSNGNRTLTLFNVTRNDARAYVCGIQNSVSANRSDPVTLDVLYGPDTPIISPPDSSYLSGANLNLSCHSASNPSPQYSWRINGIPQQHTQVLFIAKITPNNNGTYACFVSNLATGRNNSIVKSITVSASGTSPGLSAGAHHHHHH

- binding result [1]: no binding
- Kd [2]: 11.4 nM
- koff [2]: 0.000717 s⁻¹
- kon [2]: 63000 M⁻¹ s⁻¹
- Kd (cyno CD137 ECD-mIgG2a): 15.9 nM
- koff (cyno CD137 ECD-mIgG2a): 0.00266 s⁻¹
- kon (cyno CD137 ECD-mIgG2a): 167000 M⁻¹ s⁻¹
- EC50 (read off the curve) [4]: ~0.07 µg/mL
B1: BE-146 (CEAxCD137 multispecific antibody) (bispecific antibody, human IgG1, kappa)
heavy: QVQLVQSGAEVKKPGASVKVSCKASGYIFTSYYLHWVRQAPGQGLEWIGYINPQTGKTSYAQKFQGRVTMTRDTSTSTVYMELSSLRSEDTAVYYCAREYGNYNYPLDYWGQGTLVTVSSASTKGPSVFPLAPSSKSTSGGTAALGCLVKDYFPEPVTVSWNSGALTSGVHTFPAVLQSSGLYSLSSVVTVPSSSLGTQTYICNVNHKPSNTKVDKKVEPKSCDKTHTCPPCPAPPAAGPSVFLFPPKPKDTLMISRTPEVTCVVVDVSHEDPEVKFNWYVDGVEVHNAKTKPREEQYNSTYRVVSVLTVLHQDWLNGKEYKCKVSNKALAAPIEKTISKAKGQPREPQVYTLPPSREEMTKNQVSLTCLVKGFYPSDIAVEWESNGQPENNYKTTPPVLDSDGSFFLYSKLTVDKSRWQQGNVFSCSVMHEALHNHYTQKSLSLSPGKGGGGSEVQLLESGGGLVQPGGSLRLSCAASGFTVSAEDVGWVRQAPGKGLEWVSAILDKGGSTYYAESVKGRFTISRDNAKNTLYLQMSSLRAEDTAVYYCARIVYHAGGGVTFDTRGQGTQVTVSS
light: DIQMTQSPSSLSASVGDRVTITCRASENQYGYLAWYQQKPGKVPKLLIYNYKNLVEGVPSRFSGSGSGTDFTLTISSLQPEDVATYYCQHHLGTPYTFGQGTKVEIKRTVAAPSVFIFPPSDEQLKSGTASVVCLLNNFYPREAKVQWKVDNALQSGNSQESVTEQDSKDSTYSLSSTLTLSKADYEKHKVYACEVTHQGLSSPVTKSFNRGEC
notes: Module ratio 2:2, Fc null version of huIgG1; copies: 2 + 2
- NF-kB luciferase reporter in JK-NFKB-CD137 cells co-cultured with CT26-OS8-CEA, EC50 [3]: 0.51 µg/mL and 2.91 nM and 0.56 µg/mL and 3.2 nM

Source: patent US20240190989A1 (BEIGENE SWITZERLAND, published 2024)
